{"source": "patent US8071547B2", "about": "“Compositions of alpha-fetoprotein and inducers of apoptosis for the treatment of cancer” (Constab Pharmaceutical, Inc., priority 2006, dated 2011)", "molecules": {"B1": {"name": "PAFP: porcine alpha-fetoprotein, butanol-extracted from blood and amniotic fluid of embryos of 3 to 14 weeks gestation (protein, UniProt Q8MJ76 19-610, looked up)", "Alpha-fetoprotein": "RTMHENAYGIASILDSSQCSAEMNLVDLATIFFAQFVQEATYKEVNQMVKDVLTVIEKSTGSEQPAGCLENQVSVFLEEICHEEEIPEKYGLSHCCSQSGEERHNCFLARKKAAPASIPPFQVPEPVTSCKAYEENRELFMTRYIYEIARRHPFLYAPTILSLAAQYDKIIPPCCKAENAVECFQTKAASITKELRESSLLNQHMCTVMRQFGARTFRAITVTKLSQKFPKANFTEIQKLVLDVAHIHEECCRGNVLECLQDAERVVSYVCSQQDTLSSKIAECCKLPTTLELGQCIIHAENDDKPEGLSPNLNRFLGERDFNQLSSREKDLSMARFTYEYSRRHPKLAVPVILRVAKGYQELLEKCSQSENPLECQDKGEEELEKYIQESQALAKRSCGLFQKLGEYYLQNAFLVAYTKKAPQLTPPELMALTRKMATTGAACCHLSEDRQLACGEGAADLIIGQLCIRHEEMPINPGVGQCCTSSYANRRPCFSSLVLDETYVPPPFSDDKFIFHKDLCQAQGVALQTMKQQFLINLVKQKPQITEEQLEAVIADFSGLLEKCCQGQEQEVCFAEEGPALISKTRASLGV"}, "B2": {"name": "AFP: alpha-fetoprotein, major transport glycoprotein in the fetus (protein, UniProt P02771 19-609, looked up)", "Alpha-fetoprotein": "RTLHRNEYGIASILDSYQCTAEISLADLATIFFAQFVQEATYKEVSKMVKDALTAIEKPTGDEQSSGCLENQLPAFLEELCHEKEILEKYGHSDCCSQSEEGRHNCFLAHKKPTPASIPLFQVPEPVTSCEAYEEDRETFMNKFIYEIARRHPFLYAPTILLWAARYDKIIPSCCKAENAVECFQTKAATVTKELRESSLLNQHACAVMKNFGTRTFQAITVTKLSQKFTKVNFTEIQKLVLDVAHVHEHCCRGDVLDCLQDGEKIMSYICSQQDTLSNKITECCKLTTLERGQCIIHAENDEKPEGLSPNLNRFLGDRDFNQFSSGEKNIFLASFVHEYSRRHPQLAVSVILRVAKGYQELLEKCFQTENPLECQDKGEEELQKYIQESQALAKRSCGLFQKLGEYYLQNAFLVAYTKKAPQLTSSELMAITRKMAATAATCCQLSEDKLLACGEGAADIIIGHLCIRHEMTPVNPGVGQCCTSSYANRRPCFSSLVVDETYVPPAFSDDKFIFHKDLCQAQGVALQTMKQEFLINLVKQKPQITEEQLEAVIADFSGLLEKCCQGQEQEVCFAEEGQKLISKTRAALGV"}, "B3": {"name": "HAFP: human alpha-fetoprotein (protein, UniProt P02771 19-609, looked up)", "Alpha-fetoprotein": "RTLHRNEYGIASILDSYQCTAEISLADLATIFFAQFVQEATYKEVSKMVKDALTAIEKPTGDEQSSGCLENQLPAFLEELCHEKEILEKYGHSDCCSQSEEGRHNCFLAHKKPTPASIPLFQVPEPVTSCEAYEEDRETFMNKFIYEIARRHPFLYAPTILLWAARYDKIIPSCCKAENAVECFQTKAATVTKELRESSLLNQHACAVMKNFGTRTFQAITVTKLSQKFTKVNFTEIQKLVLDVAHVHEHCCRGDVLDCLQDGEKIMSYICSQQDTLSNKITECCKLTTLERGQCIIHAENDEKPEGLSPNLNRFLGDRDFNQFSSGEKNIFLASFVHEYSRRHPQLAVSVILRVAKGYQELLEKCFQTENPLECQDKGEEELQKYIQESQALAKRSCGLFQKLGEYYLQNAFLVAYTKKAPQLTSSELMAITRKMAATAATCCQLSEDKLLACGEGAADIIIGHLCIRHEMTPVNPGVGQCCTSSYANRRPCFSSLVVDETYVPPAFSDDKFIFHKDLCQAQGVALQTMKQEFLINLVKQKPQITEEQLEAVIADFSGLLEKCCQGQEQEVCFAEEGQKLISKTRAALGV"}}, "key": {"[1]": {"tested_on": "monoclonal antibody to HAFP", "assay": "Membrane EIA Alpha-fetoprotein test", "assay_type": "binding", "details": "compared to human AFP sample", "method": "(§1) PAFP extracted by the methods detailed above was analyzed using two different immune-enzyme kits in order to detect the presence of PAFP in the extraction obtained from the methods detailed above. PAFP samples were compared to AFP isolated from human serum and amniotic fluid. Initially, samples were subjected to the membrane EIA Alpha-fetoprotein test (catalog #410-1, IND Diagnostic Inc., Vancouver, Canada) which incorporates a monoclonal antibody to HAFP. […] A second test kit incorporating a polyclonal antibody to HAFP (catalog number T-8456, AFP-EIA-BEST-Strip, Vector-BEST, Novosibirsk, Russia) was then used to assay the presence of PAFP in the extraction."}, "[2]": {"tested_on": "polyclonal antibody to HAFP", "assay": "AFP-EIA-BEST-Strip test", "assay_type": "binding", "method": "as §1"}, "cancer cells [3]": {"tested_on": "cancer cells", "assay": "Comparison of AFP properties: anticancer activity (Table 1)", "details": "applicant's studies (Examples 4 to 8)", "source_text": "The present invention involves the use of exogenous alpha-fetoprotein (AFP) acting as a carrier or transporter of apoptosis-inducing agents directly to cancer cells resulting in the apoptosis of the cancer cells. U.S. Pat. Nos. 6,630,445 and 6,534,479 describe the use of recombinant human AFP for conjugation with cytotoxic agents.\n(NCBI Blast analysis is available on the world wide web at ncbi.nlm.nih.gov/blast/; Parker, M. H. et al., Protein Expression and Purification, 38:177-183, 2004)."}, "[4]": {"details": "in the fetus; cited from earlier work"}, "cancer cells [5]": {"tested_on": "cancer cells", "details": "literature; cited from earlier work"}}, "note": "Like-named read-outs stand apart in the source and are kept apart here."}
{"molecule": "B1", "values": [{"measurement": "Reaction with EIA Alpha-fetoprotein test kit", "setting": "[1]", "value": "did not produce a reaction"}, {"measurement": "Reaction with AFP-EIA-BEST-Strip kit", "setting": "[2]", "value": "positive reaction"}, {"measurement": "Anticancer activity (AFP-mediated delivery of apoptosis-inducing agent bound to cancer cells)", "setting": "cancer cells [3]", "value": "Yes"}]}
{"molecule": "B2", "values": [{"measurement": "halflife", "setting": "[4]", "value": "72 to 120", "unit": "h"}]}
{"molecule": "B3", "values": [{"measurement": "Anticancer activity (AFP-mediated delivery of apoptosis-inducing agent bound to cancer cells)", "setting": "cancer cells [5]", "value": "Yes"}]}
